Data on 4 molecules can be found in paper PMC2670837, “Staphylococcus aureus immunodominant surface antigen B is a cell-surface associated nucleic acid binding protein”.

For data set [1], the target named is T1, IsaB (recombinant, untagged) (Staphylococcus aureus 10833) (UniProt Q9LAB5).
T1 sequence: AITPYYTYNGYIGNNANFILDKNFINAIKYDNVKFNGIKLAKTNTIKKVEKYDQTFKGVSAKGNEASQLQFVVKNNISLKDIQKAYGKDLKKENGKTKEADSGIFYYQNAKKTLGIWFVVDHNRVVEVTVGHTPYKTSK
The experiment in a line: SPR. Particulars: EMSA: 20 mM HEPES, 1 mM DTT, 20 mM KCl, 200 ug/ml BSA, 10% glycerol, room temperature, 10 min, SPR: 0.33x HBS-EP + non-specific binding inhibitor, SA chip …. (In general: A gel shift assay detects complexes by their altered migration in electrophoresis.)

Data set [2] has as its target T2, IsaB (recombinant, untagged) (Staphylococcus aureus 10833, UniProt Q9LAB5 37-175).
T2 sequence: T1 sequence
The experiment in a line: EMSA; 240 pmol-3.84 nmol IsaB; shift abolished by salmon sperm DNA or yeast tRNA, not by dNTPs; EMSA: 20 mM HEPES, 1 mM DTT, 20 mM KCl, 200 ug/ml BSA, 10% glycerol, room temperature, 10 min; SPR: 0.33x HBS-EP + non-specific binding inhibitor, SA chip, Biacore T100; pull-down: 10 mM HEPES, 60 mM KCl, 4 mM MgCl2, 0.1 mM EDTA, 0.1 mg/ml BSA, 0.25 mM DTT, on ice; pH not stated. Conditions: protein: recombinant; label: Alexa Fluor 594 (ULYSIS).

“ATTGVGTTATCAATAATCTTA [BioticaPRO (ssDNA SPR bait; identity inferred)]”: the Kd (M (unit not given)) in data set [1] is 1.08e-08.
Same read-out and setting: as for “ATTGVGTTATCAATAATCTTA / GGTGGGATCCTTGAAGGATAAGATTA”, the figure is 8.1e-09.
Regarding “TNGUGCAAUUACAAAUAUUUCCGUUUAAUUAUAACAACAAUCUAUUGCA [WTUTR(RNA) (RNA SPR bait; identity inferred)]”, the Kd (M (unit not given)) in data set [1] (ribonucleotides with 3' terminal deoxy GCA) came to 1.65e-08.
GUUUAAUUAUAACAACAAUCUAUUGCA (ssRNA) [icaUTR6]: the binding result in data set [2] was “binds”.
